This data set concerns the molecule itself. The experiment in a line: SEC. (In general: Size exclusion chromatography separates by hydrodynamic size, large species first.)

We go through one protein from publication PMC3410435 (Structure (London, England : 1993), 2012).

One may read the stoichiometry N as the number of molecules, sites or subunits per partner or assembly.

B1: PdeA(R69A) (enzyme, Caulobacter crescentus, UniProt Q9A310 1-555, looked up)
chain: MSFRTGERRIWDATATLEALGAADVALWIWEPETDRLRLNGAARALGLGPLAPECSSAAFRALALPQDAAQAEEVLKPREPGSEVVARFRVRGGETCLWRGVWLEEGVRAAGVVAPETKFSASELCDLTGLLDRRSFLARARERLAQEGTHQLVVADLDRLRRLNEALGHERADLVLAALGSRLAAAFPAQSILGRIGEDEFAVLCQPLGYEPSDVLRSALEQPLRVAGFDIHPTLSIGAVSAEGGLDAPDAAELLRRAELAVEAAAAAGRGGAAAYGRAMETDGLSRLALEADLRGAIGRGEITPYFQPIVRLSTGALSGFEALARWIHPRRGMLPPDEFLPLIEEMGLMSELGAHMMHAAAQQLSTWRAAHPAMGNLTVSVNLSTGEIDRPGLVADVAETLRVNRLPRGALKLEVTESDIMRDPERAAVILKTLRDAGAGLALDDFGTGFSSLSYLTRLPFDTLKIDRYFVRTMGNNAGSAKIVRSVVKLGQDLDLEVVAEGVENAEMAHALQSLGCDYGQGFGYAPALSPQEAEVYLNEAYVDGAAPVKARG
For the protein B1, the “stoichiometry N” value stood at 2.
